Read-outs that look alike come from different tables or passages of the source.
Assays:
[1] = biological target: T1, full-length wildtype CSF-1R (wt CSF-1R) (human, UniProt P07333 20-972); assay: cell-based or functional assay
[2] = biological target: mutant CSF-1R L301S Y969F (human) (UniProt P07333); assay: cell-based or functional assay
[3] = biological target: huCSF-1R-huFc chimera (soluble extracellular domain) (human) (UniProt P07333); assay: competition ELISA: inhibition of CSF-1 binding to immobilised huCSF-1R-huFc chimera
Sequence of huCSF-1R-huFc chimera (soluble extracellular domain) (human) (P07333 20-517, change not shown): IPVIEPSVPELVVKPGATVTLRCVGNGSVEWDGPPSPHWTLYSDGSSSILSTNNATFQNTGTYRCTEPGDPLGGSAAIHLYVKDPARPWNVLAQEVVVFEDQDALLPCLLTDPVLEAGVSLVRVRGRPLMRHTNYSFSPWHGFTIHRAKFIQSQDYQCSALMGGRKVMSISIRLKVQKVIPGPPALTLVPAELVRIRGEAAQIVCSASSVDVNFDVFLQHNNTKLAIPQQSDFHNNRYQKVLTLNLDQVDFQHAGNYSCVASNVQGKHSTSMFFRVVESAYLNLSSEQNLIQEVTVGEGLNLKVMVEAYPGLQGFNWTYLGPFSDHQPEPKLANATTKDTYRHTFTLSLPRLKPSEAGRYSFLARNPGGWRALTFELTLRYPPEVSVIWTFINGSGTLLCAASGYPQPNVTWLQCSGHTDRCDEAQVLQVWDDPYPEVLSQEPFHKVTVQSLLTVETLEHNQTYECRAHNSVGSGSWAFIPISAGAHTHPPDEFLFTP

[4] = biological target: CSF-1R ECD (R&D-Systems 329-MR or in-house subcloned pCMV-presS-HisAvitag-hCSF-1R-ECD) (human) (UniProt P07333); assay: SPR (BIACORE A100) at 35 C; antibody captured, CSF-1R ECD in solution; Langmuir 1:1
Sequence of CSF-1R ECD (R&D-Systems 329-MR or in-house subcloned pCMV-presS-HisAvitag-hCSF-1R-ECD) (human) (P07333 20-517 limits assumed): as the sequence (P07333 20-517, change not shown) above

[5] = biological target: CSF-1R (R&D-Systems Cat. No. 329-MR) (human) (UniProt P07333); assay: SPR cross-competition at 25 C; response of Antibody 2 on CSF-1R held by captured Antibody 1; competitor <CSF-1R>7G5.3B6 (Antibody 1)
Sequence of CSF-1R (R&D-Systems Cat. No. 329-MR) (human) (P07333 20-517 limits assumed): as the sequence (P07333 20-517, change not shown) above

[6] = biological target: CSF-1R (R&D-Systems Cat. No. 329-MR) (human) (UniProt P07333); assay: SPR cross-competition at 25 C; response of Antibody 2 on CSF-1R held by captured Antibody 1; competitor SC-02, clone 2-4A5 (Antibody 1, same antibody)
[7] = biological target: T1, full-length wildtype CSF-1R (wt CSF-1R); assay: cell-based or functional assay; remark: listed apart in the source
[8] = biological target: T1, full-length wildtype CSF-1R (wt CSF-1R); assay: cell-based or functional assay; remark: listed apart in the source
[9] = biological target: T2, huCSF-1R-huFc chimera (soluble extracellular domain) (human, UniProt P07333 20-517); assay: competition ELISA: inhibition of CSF-1 binding to immobilised huCSF-1R-huFc chimera
T2 construct: also called huCSF-1R ECDhuFc chimera; not shown: human Fc part
T2 sequence (P07333 20-517, change not shown): as above
Procedure: At the beginning, plates were coated with […] goat F(ab′)₂ biotinylated anti Fcγ (Jackson ImmunoResearch., Cat. No. 109-006-170) for 1 hour (h).
Thereafter the wells were blocked with PBS supplemented with 0.2% TWEEN®-20 and 2% BSA (Roche Diagnostics GmbH, DE) for 0.5 h. 75 ng/ml of huCSF-1R-huFc chimera (soluble extracellular domain) was immobilized to plate for 1 h. Then dilutions of purified antibodies in PBS/0.05% Tween20/0.5% BSA were incubated for 1 h. After adding a mixture of 3 ng/ml CSF-1 (Biomol, DE, Cat. No. 60530), 50 ng/ml biotinylated anti CSF-1 clone BAF216 (R&D Systems, UK) and 1:5000 diluted streptavidin HRP (Roche Diagnostics GmbH, DE, Cat. No. 11089153001) for 1 h the plates were washed 6 times with PBST. Anti CSF-IR SC-02, clone 2-4A5 (Santa Cruz Biotechnology, ITS), which inhibits the ligand-receptor interaction, was used as positive control. Plates were developed with freshly prepared BM BLUE® POD substrate solution (BM BLUE®: 3,3′-5,5′-Tetramethylbenzidine, Roche Diagnostics GmbH, DE, Cat. No. 11484281001) for 30 minutes at RT. Absorbance was measured at 370 nm. […] Anti CSF-1R SC-02, clone 2-4A5 (Santa Cruz Biotechnology, US), which inhibits the ligand-receptor interaction, was used as reference control.

[10] = biological target: CSF-1R ECD (R&D-Systems 329-MR or in-house subcloned pCMV-presS-HisAvitag-hCSF-1R-ECD) (human, UniProt P07333 20-517); assay: SPR (BIACORE A100) at 35 C; antibody captured by anti mouse Fc gamma, CSF-1R ECD in solution; Langmuir 1:1
Sequence of CSF-1R ECD (R&D-Systems 329-MR or in-house subcloned pCMV-presS-HisAvitag-hCSF-1R-ECD) (P07333 20-517 limits assumed): as the sequence (P07333 20-517, change not shown) above
Procedure: CSF-1R ECD (R&D-Systems 329-MR or in-house subcloned pCMV-presS-HisAvitag-hCSF-1R-ECD were added in various concentrations in solution. Association was measured by an CSF-1R-injection of 1.5 minutes at 35° C.; dissociation was measured by washing the chip surface with buffer for 10 minutes at 35° C. Anti CSF-IR SC-02, clone 2-4A5 (Santa Cruz Biotechnology, US; see also Sherr, C. J., et al., Cell 41 (1985) 665-676), which inhibits the ligand-receptor interaction, was used as reference control.

T1 sequence (P07333 20-972 limits assumed): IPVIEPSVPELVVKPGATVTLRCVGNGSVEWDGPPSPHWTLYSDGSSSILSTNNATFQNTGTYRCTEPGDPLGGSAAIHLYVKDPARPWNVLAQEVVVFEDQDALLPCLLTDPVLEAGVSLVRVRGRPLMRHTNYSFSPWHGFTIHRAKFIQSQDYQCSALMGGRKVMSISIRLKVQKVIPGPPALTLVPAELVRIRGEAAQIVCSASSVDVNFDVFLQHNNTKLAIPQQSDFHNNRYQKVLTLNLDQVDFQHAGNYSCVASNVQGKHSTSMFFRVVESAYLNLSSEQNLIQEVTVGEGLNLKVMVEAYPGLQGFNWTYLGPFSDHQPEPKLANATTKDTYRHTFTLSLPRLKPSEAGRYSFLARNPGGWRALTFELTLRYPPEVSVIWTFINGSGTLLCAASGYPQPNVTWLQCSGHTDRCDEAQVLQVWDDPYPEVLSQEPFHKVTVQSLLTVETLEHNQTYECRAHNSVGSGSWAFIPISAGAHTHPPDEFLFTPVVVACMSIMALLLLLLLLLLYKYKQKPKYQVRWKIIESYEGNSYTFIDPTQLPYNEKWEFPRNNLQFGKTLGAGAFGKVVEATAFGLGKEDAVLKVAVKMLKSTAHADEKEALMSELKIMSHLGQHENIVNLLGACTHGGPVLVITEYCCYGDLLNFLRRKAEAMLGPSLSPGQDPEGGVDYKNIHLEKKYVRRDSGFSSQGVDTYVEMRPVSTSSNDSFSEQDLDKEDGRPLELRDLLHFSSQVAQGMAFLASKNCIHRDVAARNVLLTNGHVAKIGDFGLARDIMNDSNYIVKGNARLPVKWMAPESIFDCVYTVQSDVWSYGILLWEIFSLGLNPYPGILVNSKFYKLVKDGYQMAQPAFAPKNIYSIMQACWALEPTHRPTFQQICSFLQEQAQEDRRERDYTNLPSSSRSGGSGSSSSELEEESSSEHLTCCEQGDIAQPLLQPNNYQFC
Sequence of mutant CSF-1R L301S Y969F (human) (P07333 20-972 L301S/Y969F limits assumed): as the sequence (P07333 20-972 limits assumed) above, with L282S, Y950F counted along it

Anti CSF-1R SC-02, clone 2-4A5 (Santa Cruz Biotechnology) (antibody)
% inhibition of CSF-1 induced growth of BeWo tumor cells, 10 ug/ml antibody concentration [1]: 40%
% survival of NIH3T3 cells expressing wt CSF-1R, 10 ug/ml antibody (…-GLO) [1]: 62%
IC50 CSF-1R Phosphorylation [1]: 0.412 mg/L
IC50 [nM] of inhibition of monocyte survival (…-GLO) [1]: 2.4 nM
% survival of NIH3T3 cells expressing mutant CSF-1R L301S Y969F, 10 ug/ml antibody (…-GLO) [2]: 66%
IC50 [3]: 0.0309 mg/L
Kd [4]: 2.73 nM
koff [4]: 0.00139 s⁻¹
kon [4]: 509000 M⁻¹ s⁻¹
t1/2 [4]: 8.31 min
percentage (%) of expected binding response [5]: 36%
percentage (%) of expected binding response [6]: -2%

B1: <CSF-1R>7G5.3B6 (antibody, V domains shown)
VH: EIQLQQSGPELVKPGASVRVSCKPSGYSFTDYNMYWVRQSHGKSLDWIGYIDPYNGGTTYNQKFRGKATLTVDKSSSTAFMHLNSLTSEDSAVYYCARGGDEYYFDYWGQGTTLTVSS
VL: DIVMSQSPSSLAVSVGEKVTMSCKSSQSLLDSRNQKNYLAWYQQKPGQSPKLLIYWASTRESGVPDRFTGSGSGTDFTLTISSVKAEDLAVYYCQQYYSYPPTFGGGTKLEIKR
notes: Mouse monoclonal antibody from hybridoma DSM ACC2921 (NMRI mice), tested as purified hybridoma antibody; also called deposited antibody DSM ACC2921
IC50 CSF-1R Phosphorylation [7]: < 0.011 mg/L
IC50 [nM] of inhibition of monocyte survival (…-GLO) [8]: 0.4 nM
IC50 [9]: 0.0188 mg/L
Kd [10]: 0.61 nM
koff [10]: 0.0049 s⁻¹
kon [10]: 8e+06 M⁻¹ s⁻¹
t1/2 [10]: 2.37 min
